These results are taken from US20250002563A1.

For the experiment, the target named is SARS-CoV-2 spike on pseudotyped virus particles (Wuhan-Hu-1 strain) (SARS-CoV-2) (UniProt P0DTC2). Description: cell-based or functional assay.

On to homotrimeric Nb20, for which the IC50, pseudovirus luciferase assay came to 3 pM.
The substance homotrimeric Nb21 came in with an IC50, pseudovirus luciferase assay of 1.3 pM.
